Substitutions are numbered along the chain they refer to. Names and notes keep the numbering of the source.
B1: IL6R-AP009/IL6R-BP260/IL6R-L (antibody, human IgG1, kappa)
heavy 1: QVQLQESGPGLVKPSETLSLTCAVSGHSISHDHAWSWVRQPPGEGLEWIGFISYSGITNYNPSLQGRVTISRDNSKNTLYLQMNSLRAEDTAVYYCARSLARTTAMDYWGEGTLVTVSSASTKGPSVFPLAPSSKSTSGGTAALGCLVKDYFPEPVTVSWNSGALTSGVHTFPAVLQSSGLYSLSSVVTVPSSSLGTQTYICNVNHKPSNTKVDKKVEPKSCDKTHTCPPCPAPDLLGDDSVFLFPPKPKDTLMISRTPEVTCVVVDVSDEDGEVKFNWYVDGVEVHNAKTKPREEQDNSTYRVVSVLTVLHQDWLNGKEYKCKVSNKALPRPIEKTISKAKGQPREPQVYTLPPSRKELTKNQVSLTCLVKGFYPSDIAVEWESNGQPENNYKTTPPVLDSDGSFFLYSKLTVDKSRWQQGNVFSCSVMHEALHNRYTQKSLSLSP
heavy 2: B1 heavy 1 with S241E, K358D, R437H, K441E
light: not shown
notes: Heterodimer: S239E in one chain only
B2: IL6R-BP489/IL6R-L (antibody, human IgG1, kappa)
heavy: B1 heavy 1 with V266I, S269A, D270E, K358D, P398M, R437H, K441E
light: not shown
notes: Alterations in EU numbering, introduced into IL6R-B3
B3: IL6R-BP488/IL6R-L (antibody, human IgG1, kappa)
heavy: B1 heavy 1 with V266I, S269A, D270E, K358D, R437H, K441E
light: not shown
notes: as for B2
B4: IL6R-BP438/IL6R-L (antibody, human IgG1, kappa)
heavy: B1 heavy 1 with S269A, D270E, D298Y, I334T, K358D, R437H, K441E
light: not shown
notes: as for B2
B5: IL6R-BP496/IL6R-L (antibody, human IgG1, kappa)
heavy: B1 heavy 1 with V266I, S269A, D270E, R332A, K358D, R437H, K441E
light: not shown
notes: as for B2
B6: IL6R-BP536/IL6R-L (antibody, human IgG1, kappa)
heavy: B1 heavy 1 with V266I, D270E, A329G, K358D, P398M, R437H, K441E
light: not shown
notes: as for B2
B7: IL6R-BP503/IL6R-L (antibody, human IgG1, kappa)
heavy: B1 heavy 1 with V266I, S269A, D270E, A329G, K358D, P398M, R437H, K441E
light: not shown
notes: as for B2
B8: IL6R-BP498/IL6R-L (antibody, human IgG1, kappa)
heavy: B1 heavy 1 with V266I, S269A, D270E, D298Y, K358D, P398L, R437H, K441E
light: not shown
notes: as for B2
B9: IL6R-BP538/IL6R-L (antibody, human IgG1, kappa)
heavy: B1 heavy 1 with D235E, V266I, D270E, D298Y, K358D, R437H, K441E
light: not shown
notes: as for B2
B10: IL6R-BP533/IL6R-L (antibody, human IgG1, kappa)
heavy: B1 heavy 1 with V266I, S269G, D270E, K358D, P398L, R437H, K441E
light: not shown
notes: as for B2
B11: IL6R-BP540/IL6R-L (antibody, human IgG1, kappa)
heavy: B1 heavy 1 with D235E, V266I, D270E, E274P, K358D, R437H, K441E
light: not shown
notes: as for B2
B12: IL6R-BP558/IL6R-L (antibody, human IgG1, kappa)
heavy: B1 heavy 1 with D235E, V266I, S269G, D270E, E274D, D298Y, K358D, R437H, K441E
light: not shown
notes: as for B2
B13: IL6R-BP539/IL6R-L (antibody, human IgG1, kappa)
heavy: B1 heavy 1 with D235E, V266I, S269G, D270E, E274P, K358D, R437H, K441E
light: not shown
notes: as for B2
B14: IL6R-BP551/IL6R-L (antibody, human IgG1, kappa)
heavy: B1 heavy 1 with D235E, V266I, D270E, E274D, K358D, R437H, K441E
light: not shown
notes: as for B2
B15: IL6R-BP502/IL6R-L (antibody, human IgG1, kappa)
heavy: B1 heavy 1 with V266I, S269A, D270E, A329G, K358D, R437H, K441E
light: not shown
notes: as for B2
B16: IL6R-BP511/IL6R-L (antibody, human IgG1, kappa)
heavy: B1 heavy 1 with D235E, V266I, S269A, D270E, E274P, K358D, R437H, K441E
light: not shown
notes: as for B2
B17: IL6R-BP499/IL6R-L (antibody, human IgG1, kappa)
heavy: B1 heavy 1 with V266I, S269A, D270E, K358D, P398L, R437H, K441E
light: not shown
notes: as for B2
B18: IL6R-BP554/IL6R-L (antibody, human IgG1, kappa)
heavy: B1 heavy 1 with D235E, V266I, S269A, D270E, E274D, D298Y, K358D, R437H, K441E
light: not shown
notes: as for B2
B19: IL6R-BP497/IL6R-L (antibody, human IgG1, kappa)
heavy: B1 heavy 1 with V266I, S269A, D270E, D298Y, A329G, K358D, R437H, K441E
light: not shown
notes: as for B2
B20: IL6R-BP510/IL6R-L (antibody, human IgG1, kappa)
heavy: B1 heavy 1 with D235E, V266I, S269A, D270E, E274P, D298Y, K358D, R437H, K441E
light: not shown
notes: as for B2
B21: IL6R-BP491/IL6R-L (antibody, human IgG1, kappa)
heavy: B1 heavy 1 with D235E, V266I, S269A, D270E, K358D, R437H, K441E
light: not shown
notes: as for B2
B22: IL6R-BP487/IL6R-L (antibody, human IgG1, kappa)
heavy: B1 heavy 1 with V266I, S269A, D270E, D298Y, K358D, P398M, R437H, K441E
light: not shown
notes: as for B2
B23: IL6R-BP550/IL6R-L (antibody, human IgG1, kappa)
heavy: B1 heavy 1 with D235E, V266I, S269G, D270E, E274D, K358D, R437H, K441E
light: not shown
notes: as for B2

How the values were obtained:
[1] = biological target: T1, FcγRIIb extracellular domain with C-terminal His tag (human, UniProt P31994 43-217); assay: SPR (Biacore)
T1 construct: extracellular domain; For crystals it was expressed with kifunensine and trimmed with Endo F1; also called FcgRIIb; FcγRIIb extracellular region
T1 sequence (looked up): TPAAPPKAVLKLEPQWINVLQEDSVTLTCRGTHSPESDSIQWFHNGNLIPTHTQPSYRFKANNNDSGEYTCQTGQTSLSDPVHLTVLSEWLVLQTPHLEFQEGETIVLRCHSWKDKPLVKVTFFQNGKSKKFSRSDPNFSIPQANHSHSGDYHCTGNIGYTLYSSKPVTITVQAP

[2] = biological target: T2, FcγRIIb (human, UniProt P31994 43-217); assay: SPR (Biacore); parent = IL6R-B3/IL6R-L
T2 construct: extracellular domain; also called FcgRIIb; CD32B
T2 sequence (looked up): T1 sequence (looked up)

[3] = biological target: T3, FcγRIIa type R (human, UniProt P12318 34-217); assay: SPR (Biacore); parent = IL6R-B3/IL6R-L
T3 chain: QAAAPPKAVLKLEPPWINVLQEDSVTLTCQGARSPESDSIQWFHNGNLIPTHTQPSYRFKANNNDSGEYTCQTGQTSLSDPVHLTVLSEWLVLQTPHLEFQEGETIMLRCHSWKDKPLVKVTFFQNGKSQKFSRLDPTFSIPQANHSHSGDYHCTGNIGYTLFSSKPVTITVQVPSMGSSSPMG

[4] = biological target: T4, FcγRIa (human, UniProt P12314 16-292); assay: SPR (Biacore), captured antibody, soluble FcγR
T4 construct: Whole entry named; also called FcgRIa; CD64A

[5] = biological target: T5, FcγRIIa type H (human, UniProt P12318 34-217); assay: SPR (Biacore), captured antibody, soluble FcγR
T5 construct: extracellular domain; also called FcγRIIaH; FcgRIIaH
T5 sequence (looked up): T3 chain with R134H

[6] = biological target: T2, FcγRIIb; assay: SPR (Biacore), captured antibody, soluble FcγR
[7] = biological target: T3, FcγRIIa type R; assay: SPR (Biacore), captured antibody, soluble FcγR

T4 sequence (P12314 16-292): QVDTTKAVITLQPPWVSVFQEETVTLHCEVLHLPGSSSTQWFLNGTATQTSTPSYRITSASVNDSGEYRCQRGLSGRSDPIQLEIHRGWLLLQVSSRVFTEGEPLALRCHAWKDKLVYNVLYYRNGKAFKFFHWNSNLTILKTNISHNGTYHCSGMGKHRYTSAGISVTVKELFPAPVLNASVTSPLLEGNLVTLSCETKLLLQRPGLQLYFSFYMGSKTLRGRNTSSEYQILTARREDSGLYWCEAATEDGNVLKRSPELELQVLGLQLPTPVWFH

Row | Binder | binding result [1] | KD(IIb) of the parent polypeptide/KD(IIb) of the altered polypeptide [2] | KD(IIaR) of the parent polypeptide/KD(IIaR) of the altered polypeptide [3] | Kd [4] | Kd [5] | Kd [6] | Kd [7]
1 | B1 | binds | – | – | – | – | – | –
2 | B2 | – | 3100 fold | 25.7 fold | 1.3 nM | 870 nM | 1 nM | 43 nM
3 | B3 | – | 1680 fold | 14.8 fold | 2.2 nM | 1600 nM | 1.9 nM | 74 nM
4 | B4 | – | – | – | – | 1600 nM | – | 180 nM
5 | B5 | – | 168 fold | 2.3 fold | 1.2 nM | 3700 nM | 18 nM | 470 nM
6 | B6 | – | 1040 fold | 13.9 fold | 8.9 nM | 1300 nM | 3 nM | 79 nM
7 | B7 | – | 1810 fold | 19.4 fold | 1.2 nM | 860 nM | 1.7 nM | 57 nM
8 | B8 | – | 1880 fold | 21.7 fold | 1.3 nM | 930 nM | 1.7 nM | 51 nM
9 | B9 | – | 587 fold | 5.4 fold | 55 nM | 3000 nM | 5.3 nM | 200 nM
10 | B10 | – | 756 fold | 9.2 fold | 7.7 nM | 2600 nM | 4.1 nM | 120 nM
11 | B11 | – | 541 fold | 5.2 fold | 96 nM | 4600 nM | 5.7 nM | 210 nM
12 | B12 | – | – | – | – | 4900 nM | 9 nM | 330 nM
13 | B13 | – | 369 fold | 3.4 fold | 64 nM | 5600 nM | 8.4 nM | 330 nM
14 | B14 | – | 482 fold | 4.5 fold | 32 nM | 2800 nM | 6.4 nM | 250 nM
15 | B15 | – | 840 fold | 10.1 fold | 2.1 nM | 1300 nM | 3.7 nM | 110 nM
16 | B16 | – | 891 fold | 6.3 fold | 6 nM | 4300 nM | 3.5 nM | 180 nM
17 | B17 | – | 2120 fold | 22.3 fold | 1.2 nM | 1000 nM | 1.5 nM | 49 nM
18 | B18 | – | – | – | 8 nM | 2300 nM | – | 150 nM
19 | B19 | – | 764 fold | 12.9 fold | 2.1 nM | 960 nM | 4.1 nM | 85 nM
20 | B20 | – | 807 fold | 6.6 fold | 6 nM | 4000 nM | 3.8 nM | 170 nM
21 | B21 | – | 1020 fold | 9.3 fold | 5.3 nM | 2200 nM | 3 nM | 120 nM
22 | B22 | – | 2700 fold | 28.3 fold | 1.2 nM | 840 nM | 1.2 nM | 39 nM
23 | B23 | – | 406 fold | 3.3 fold | 25 nM | 5000 nM | 7.6 nM | 340 nM

— patent US20210261648A1 (published 2021)
